# Measurements: patent publication US6596504B2, “Treatment of prophylaxis of diseases caused by pilus-forming bacteria” (Washington University, priority 1993, dated 2003)
# T1: PapD (Escherichia coli, UniProt P15319)
# T1 construct: (A) NAME/KEY: mat_; made in house; Lindberg et al. 1989
# T1 sequence (P15319 22-239): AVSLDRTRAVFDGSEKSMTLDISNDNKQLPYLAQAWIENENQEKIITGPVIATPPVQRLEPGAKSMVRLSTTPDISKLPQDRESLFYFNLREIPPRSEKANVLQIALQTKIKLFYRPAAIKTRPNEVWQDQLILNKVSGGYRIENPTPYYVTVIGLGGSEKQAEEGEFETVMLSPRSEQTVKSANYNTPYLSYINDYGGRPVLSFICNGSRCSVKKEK
# B1: full-length PapG: P pilus tip adhesin PapG (protein)
# chain: GWHNVMFYAFNDYLTTNAGNVKVIDQPQLYIPWNTGSATATYYSCSGPEFASGVYFQEYLAWMVVPKHVYTNEGFNIFLDVQSKYGWSMENENDKDFYFFVNGYEWDTWTNNGARICFYPGNMKQLNNKFNDLVFRVLLPVDLPKGHYNFPVRYIRGIQHHYYDLWQDHYKMPYDQIKQLPATNTLMLSFDNVGGCQPSTQVLNIDHGSIVIDRANGNIASQTLSIYCDVPVSVKISLLRNTPPIYNNNKFSVGLGNGWDSIISLDGVEQSEEILRWYTAGSKTVKIESRLYGEEGKRKPGELSGSMTMVLSFP
# B2: wild type PapD: periplasmic chaperone PapD of E. coli, wild type (protein, UniProt P15319 22-239, looked up)
# Chaperone protein PapD: T1 sequence (P15319 22-239)
# How the values were obtained:
# HB101/pFJ3 [1] = test: Hemagglutination titer on co-expression of MBP/G fusions with the pap operon; format: cell-based, E. coli
# Method: HB101/pFJ3 harbouring various MBP/G fusion plasmids was passaged on Trypticase Soy Agar (TSA, Becton Dickinson, Cockeysville, Md., USA) three times to induce P-pili expression. At the last passage, the expression of MBP/G fusions was induced on TSA containing 100 μM IPTG. The cells from different strains were then collected and the HA titers were determined as described (Jacob-Dubuisson et al., 1993b).
# PapD is essential for P-pilus assembly (Hultgren et al., 1991). […] The ability of the MBP/G fusions to block pilus formation by inhibiting chaperone-subunit complex formation when co-expressed in trans with the pap operon was tested. Plasmids pMAL-p4, pMAL/G1′-19′, pMAL/G1′-81′ and pMAL/G1′-140′ were transformed into the strain HB101/pFJ3 which contains the pap operon under the control of its own promoter in the vector pACYC184 (Jacob-Dubuisson et al. 1993b). Each MBP/G fusion protein was localized in the periplasm as determined by SDS-PAGE and western blotting with anti-MBP antisera (data not shown). Hemagglutination (HA) assays were performed on the cells co-expressing the pap operon with either MBP (pMAL-p4) or with each of the MBP/G fusions. Co-expression of the MBP/G1′-140′ fusions with the pap operon decreased the HA titer 30 fold compared to the MBP control (see table 3).
# PapD [2] = biological target: T1, PapD; test: In vitro complex formation of PapD with MBP/G fusion proteins on silver stained IEF gel; format: binding, E. coli
# Method: (A) PapD was incubated with 1 μg of amylose affinity purified MBP (lane), MBP-G1′-19′ (lane 2), MBP-G1′-81′ (lane 3), or MBP-G1′-140′ (lane 4) and complex formation was evaluated on the silver stained IEF gel. Positions of MBP/G fusions, PapD and the PapD-MBP-G1′-140′ complex are indicated.
# The interaction between PapD and MBP/G fusion in vitro was assayed by incubating purified PapD (1 μg) and amylose bead affinity purified MBP/G fusion protein (1 μg) in 4 μl PBS for 30 minutes and then applied to IEF (pI 3-9), followed by silver staining. Another in vitro assay that is more quantitative is the ELISA described below.
# PapD [3] = biological target: T1, PapD; test: PapD-MBP/G interactions in vivo: co-elution of PapD on amylose affinity chromatography; format: binding, E. coli
# Method: Strains carrying MBP or MBP/G fusion gene plasmids were induced in LB broth culture with 1 mM isopropylthiogalactoside (IPTG). Periplasmic extracts were prepared as described (Slonim et al., 1992). One tenth volume of 10×phosphate-buffered saline (PBS, 120 mM NaCl, 2.7 mM KCl, 10 mM Na2HPO4 and 2 mM KH2PO4, pH 7.4) was added to the periplasmic extract. Amylose resin was then added to the periplasmic extracts at a 1:5 ratio. The mixture was rocked at 4° C. overnight and the beads were subsequently washed 5 times with PBS. MBP or MBP/G fusion proteins were eluted with 20 mM maltose in PBS by rocking at 4° C. for an hour. Protein concentrations were determined using the Bio-Rad DC protein assay kit (Bio-Rad Laboratories, Hercules, Calif., USA). The full length fusion protein concentration was further quantitated by the Coomassie stained SDS-PAGE gel with known concentrations of bovine albumin (BSA) as the standards followed by densitometry scanning. […]
# The ability of PapD to bind to the MBP/G fusions was investigated using amylose affinity chromatography (Kellermann and Ferenci, 1982). […] Periplasmic extracts from each strain containing the MBP/G proteins and PapD were subjected to amylose affinity chromatography and the eluates analyzed by SDS-PAGE (FIG. 21A) and by western blotting with anti-PapD antisera (FIG. 21B). […]
# HB101/pFJ3 [4] = test: Pili preparation and quantitation on co-expression of MBP/G fusions; format: cell-based, E. coli
# Method: The cells obtained from TSA plates were collected. Pili were prepared from the same amounts of cells using the procedure described previously (Jacob-Dubuisson, et al., 1993b). These pili preparations were boiled in Lammeli sample buffer with 4 M urea, then analyzed on Coomassie blue stained SDS polyacrylamide gels. The relative amount of piliation was quantified by densitometric scanning of the PapA bands.
# PapD [5] = biological target: T1, PapD; test: ELISA: PapD binding to immobilized MBP/G fusion proteins; parameters: species or system E. coli; details: 50 pmol PapD
# Method: (B) Amylose affinity purified NBP/G fusion proteins were coated to wells of microtiter plates. The concentration of the MBP/G proteins in the wells is indicated. Binding of 50 pmol/[…] of PapD to the immobilized proteins was determined by ELISA using anti-PapD antiserum.
# Stock solutions of MBP/G fusion proteins in PBS were diluted to 40 pmol/50 μl with PBS. The solutions of the 40 pmol/50 μl MBP/G fusion proteins were serially diluted in PBS and 50 μl of each solution were used to coat the wells of a 96-well Nunc Immunoplate (Inter Med, DK-4000 Roskilde, Denmark) overnight at 4° C. The wells were then washed with PBS and blocked with 200 μl of […] in PBS for 2 hours at 25° C. The plates were washed vigorously three times with PBS and incubated with 50 μl of PapD diluted at 50 pmol PapD in 50 μl 3% BSA-PBS for 45 minutes at 25° C. After three washings with PBS, the wells were incubated with a 1:500 dilution of rabbit anti-PapD antiserum in 3% BSA-PBS for 45 minutes at 25° C. After three washings with PBS, the wells were incubated with a 1:1000 dilution of goat antiserum to rabbit IgG coupled to alkaline phosphatase in 3% BSA-PBS for 45 minutes at 25° C. […] The reaction was incubated for 1 hour in the dark at 25° C. and the absorbance at 405 nm was read.
# PapD [6] = biological target: T1, PapD; test: ELISA: PapD binding to immobilized second site peptides of PapG; parameters: species or system E. coli; details: peptide coated on wells, 200 pmol PapD
# Method: Four synthetic peptides overlapping the PapG region from residue 156′ to 120′ (indicated in FIG. 20) were coated to wells of microtiter plates. The concentration of each peptide in the wells is indicated. Binding of 200 pmol/[…] of PapD to the immobilized peptide was determined by ELISA using anti-PapD antiserum.
# For assaying the second site peptides, all the peptides were dissolved in dimethyl sulfoxide (DMSO, Sigma, St. Louis, Mo., USA) to a final concentration 2 mM. The stock solutions were diluted to a proper concentration in PBS and coated overnight on microtiter wells at 4° C. All the peptide solutions were adjusted to the same DMSO concentration. The subsequent steps followed the procedure described above.
# PapD [7] = biological target: T1, PapD; test: PapD complex formation with PapG truncates (acidic native gel, western blotting); format: binding, E. coli; details: co-expressed in KS474
# Method: Periplasm containing PapD and PapG, PapG2 or PapG3 (lane 2, 3 and 4 respectively) were subjected to Gal α(1-4) Gal chromatography and eth eluates were analyzed on acidic native gel electrophoresis following western blotting using anti-PapD (A) and anti-PapG (B) antisera. Purified PapD-PapG complex was loaded-in lane 1.
# PapD and the PapG-truncates were co-expressed in KS474, the truncates were induced at OD600 0.6 with 0.5 mM IPTG and PapD under the control of the arabinose promoter was induced with 0.2% arabinose. After one hour induction, periplasmic extracts were prepared and rocked with Gal α(1-4) Gal beads overnight at 4° C. and eluted with 15 μg/ml Gal α(1-4) Gal-TMSET solution as described previously (Hultgren et al., 1989; Kuehn et al., 1991). The eluates were analyzed by acidic native gel eletrophoresis (Striker et al., 1994) followed by western blotting using anti-PapD and anti-PapG antiserum.
# G1′-19′WT peptide = biological target: T2, G1′-19′WT peptide (Escherichia coli, UniProt P13720); test: Native polyacrylamide gel mobility shift of PapD (wild type and mutants) with G1′-19′WT peptide; format: binding, E. coli; details: native-PAGE assay
# T2 construct: G1′-19′ denotes the 19 C-terminal amino acid residues of PapG; made in house; host or cells: synthetic peptide
# Excerpt: The ability of the mutant chaperones to bind pilus subunits and modulate pilus assembly in vivo was correlated to their ability to bind to the G1′-19′WT peptide and to PapG in vitro. […] Similarly, mutations in Arg-8 and Lys-112 abolished the ability of PapD to bind to PapG and reconstitute the PapD-PapG complex in vitro (FIG. 7) and to bind to pilus subunits and mediate pilus assembly in vivo (cf. table 2).
molecule,measurement,setting,value
MBP/G1′-19′: fusion of maltose binding protein and COOH-terminal residues 1′-19′ of PapG,effect on hemagglutination,HB101/pFJ3 [1]; co-expression in strains producing P pili,only weak effects on the HA titer
same,HA titer,"HB101/pFJ3 [1]; highest dilution of cell suspension yielding detectable HA, co-expression with pap operon",64
same,complex formation with PapD in vitro,PapD [2],no complexes
same,interaction of PapD with MBP/G protein in vivo (co-elution),"PapD [3]; co-expressed, SDS-PAGE and western blot of eluates",only weakly
same,stable complexes with PapD in the eluates,PapD [3]; silver stained IEF gel,not possible to detect stable complexes
same,reduction of the amount of pili compared to MBP alone,HB101/pFJ3 [4]; co-expression with pap operon,about 50%
same,Pilation percentage,"HB101/pFJ3 [4]; densitometry of PapA bands, control HB101/pFJ3/pMAL-p4 = 100%",50%
same,inhibition of pilus assembly,HB101/pFJ3 [4]; expression in cells producing P pili,weak inhibitors
same,PapD binding to immobilized fusion protein,PapD [5],weakly
"G125′-140′: peptide of C-terminal amino acid residues 125′ to 140′ of PapG, SEQ ID NO: 20 (DQIKQLPATNTLMLSF)",binding to PapD in ELISA,PapD [6],bound to PapD
B1,complex formation with PapD,PapD [7],formed a complex
B2,mobility shift on incubation with G1′-19′WT peptide,G1′-19′WT peptide,cause a mobility shift
